From the supplement of paper PMC10567573

B1: KCNA3 (parent)
chain: YQSGGRIRRPVNVPIDIFSEEIRF
B2: TSN (parent)
chain: AFVVYLETETLVTREAVTEILGIE

Variants of: B1
Experiment: protein stability index of a GFP-peptide fusion (GPS, HEK-293T) (PSI 1-6); higher = more stable
Details: c terminus: a fixed tail appended
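Further: lentivirally expressed fusions sorted by FACS into six bins by GFP to DsRed ratio, PSI derived from sequencing read proportions per bin multiplied by bin number.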

In order of rising protein stability index:
1. YQSGGRIRRPVNVPIDIFSEEIWF [R23W]  1.05
2. YQSGGRIRRPVNVPIDIFSEEICF [R23C]  1.23
3. YQSGGRIRRPVNVPIDIFSEEILF [R23L]  1.28
4. YQSGGRIRRPVNVPIDIFSEEARF [I22A]  1.34
5. YQSGGRIRRPVNVPIDIFSESIRF [E21S]  1.48
6. YQSGGRIRRPVNVPIDIFSTEIRF [E20T]  1.53
7. YQSGGRIRRPVNVPIDIFSEEIFF [R23F]  1.53
8. YQSGGRIRRPVNVPIDIFSEDIRF [E21D]  1.56
9. YQSGGRIRRPVNVPIDIFSEIIRF [E21I]  1.6
10. YQSGGRIRRPVNVPIDIFSEFIRF [E21F]  1.62
11. YQSGGRIRRPVNVPIDIFSEEITF [R23T]  1.62
12. YQSGGRIRRPVNVPIDIFSEEIRG [F24G]  1.62
13. YQSGGRIRRPVNVPIDIFSEPIRF [E21P]  1.65
14. YQSGGRIRRPVNVPIDIFSEEIRW [F24W]  1.66
15. YQSGGRIRRPVNVPIDIFSEEIMF [R23M]  1.67
16. YQSGGRIRRPVNVPIDIFSEEGRF [I22G]  1.68
17. YQSGGRIRRPVNVPIDIFSEEIVF [R23V]  1.68
18. YQSGGRIRRPVNVPIDIFSEEFRF [I22F]  1.69
19. YQSGGRIRRPVNVPIDIFSEEIQF [R23Q]  1.72
20. YQSGGRIRRPVNVPIDIFSEEINF [R23N]  1.77
21. YQSGGRIRRPVNVPIDIFSEEYRF [I22Y]  1.8
22. YQSGGRIRRPVNVPIDIFSSEIRF [E20S]  1.82
23. YQSGGRIRRPVNVPIDIFSEKIRF [E21K]  1.84
24. YQSGGRIRRPVNVPIDIFSEMIRF [E21M]  1.87
25. YQSGGRIRRPVNVPIDIFSEEIRK [F24K]  1.94
26. YQSGGRIRRPVNVPIDIFSETIRF [E21T]  1.95
27. YQSGGRIRRPVNVPIDIFSEVIRF [E21V]  1.97
28. YQSGGRIRRPVNVPIDIFSEEIPF [R23P]  1.97
29. YQSGGRIRRPVNVPIDIFSEEPRF [I22P]  1.98
30. YQSGGRIRRPVNVPIDIFSEHIRF [E21H]  2
31. YQSGGRIRRPVNVPIDIFSEELRF [I22L]  2.06
32. YQSGGRIRRPVNVPIDIFSELIRF [E21L]  2.09
33. YQSGGRIRRPVNVPIDIFSEEIRD [F24D]  2.1
34. YQSGGRIRRPVNVPIDIFSEEIEF [R23E]  2.19
35. YQSGGRIRRPVNVPIDIFSEETRF [I22T]  2.2
36. YQSGGRIRRPVNVPIDIFSEEIRP [F24P]  2.26
37. YQSGGRIRRPVNVPIDIFSEAIRF [E21A]  2.27
38. YQSGGRIRRPVNVPIDIFSEEMRF [I22M]  2.29
39. YQSGGRIRRPVNVPIDIFSEESRF [I22S]  2.29
40. YQSGGRIRRPVNVPIDIFSEEIAF [R23A]  2.29
41. YQSGGRIRRPVNVPIDIFSEEIKF [R23K]  2.3
42. YQSGGRIRRPVNVPIDIFSEEKRF [I22K]  2.31
43. YQSGGRIRRPVNVPIDIFSEEIRQ [F24Q]  2.31
44. YQSGGRIRRPVNVPIDIFSEEIRC [F24C]  2.32
45. YQSGGRIRRPVNVPIDIFSENIRF [E21N]  2.33
46. YQSGGRIRRPVNVPIDIFSYEIRF [E20Y]  2.34
47. YQSGGRIRRPVNVPIDIFSEEIHF [R23H]  2.37
48. YQSGGRIRRPVNVPIDIFSEEIRL [F24L]  2.37
49. YQSGGRIRRPVNVPIDIFSERIRF [E21R]  2.38
50. YQSGGRIRRPVNVPIDIFSEEIRR [F24R]  2.38
51. YQSGGRIRRPVNVPIDIFSEEIRH [F24H]  2.4
52. YQSGGRIRRPVNVPIDIFSEEIRS [F24S]  2.4
53. YQSGGRIRRPVNVPIDIFSEEIRV [F24V]  2.42
54. YQSGGRIRRPVNVPIDIFSEEIRI [F24I]  2.47
55. YQSGGRIRRPVNVPIDIFSEEDRF [I22D]  2.5
56. YQSGGRIRRPVNVPIDIFSECIRF [E21C]  2.51
57. YQSGGRIRRPVNVPIDIFSEEIRM [F24M]  2.52
58. YQSGGRIRRPVNVPIDIFSEEIRT [F24T]  2.52
59. YQSGGRIRRPVNVPIDIFSEEIRA [F24A]  2.53
60. YQSGGRIRRPVNVPIDIFSEYIRF [E21Y]  2.56
61. YQSGGRIRRPVNVPIDIFSEERRF [I22R]  2.68
62. YQSGGRIRRPVNVPIDIFSEEHRF [I22H]  2.71
63. YQSGGRIRRPVNVPIDIFSEQIRF [E21Q]  2.75
64. YQSGGRIRRPVNVPIDIFSEENRF [I22N]  2.82
65. YQSGGRIRRPVNVPIDIFSEEQRF [I22Q]  2.86
66. YQSGGRIRRPVNVPIDIFSEEIDF [R23D]  3
67. YQSGGRIRRPVNVPIDIFSEEIRN [F24N]  3.24
68. YQSGGRIRRPVNVPIDIFSEEVRF [I22V]  3.48

Variants of: B2
Experiment: as above
Details: c terminus: a fixed tail appended

In order of falling protein stability index:
1. RFVVYLETETLVTREAVTEILGIE [A1R]  4.12
2. FFVVYLETETLVTREAVTEILGIE [A1F]  3.77
3. GFVVYLETETLVTREAVTEILGIE [A1G]  3.71
4. ADVVYLETETLVTREAVTEILGIE [F2D]  3.68
5. IFVVYLETETLVTREAVTEILGIE [A1I]  3.49
6. EFVVYLETETLVTREAVTEILGIE [A1E]  3.39
7. LFVVYLETETLVTREAVTEILGIE [A1L]  3.38
8. NFVVYLETETLVTREAVTEILGIE [A1N]  3.19
9. AMVVYLETETLVTREAVTEILGIE [F2M]  2.88
10. AIVVYLETETLVTREAVTEILGIE [F2I]  2.72
11. SFVVYLETETLVTREAVTEILGIE [A1S]  2.71
12. CFVVYLETETLVTREAVTEILGIE [A1C]  2.64
13. MFVVYLETETLVTREAVTEILGIE [A1M]  2.61
14. TFVVYLETETLVTREAVTEILGIE [A1T]  2.55
15. HFVVYLETETLVTREAVTEILGIE [A1H]  2.54
16. KFVVYLETETLVTREAVTEILGIE [A1K]  2.54
17. AEVVYLETETLVTREAVTEILGIE [F2E]  2.49
18. PFVVYLETETLVTREAVTEILGIE [A1P]  2.44
19. WFVVYLETETLVTREAVTEILGIE [A1W]  2.42
20. ALVVYLETETLVTREAVTEILGIE [F2L]  2.25
21. QFVVYLETETLVTREAVTEILGIE [A1Q]  2.11
22. AAVVYLETETLVTREAVTEILGIE [F2A]  1.97
23. AGVVYLETETLVTREAVTEILGIE [F2G]  1.88
24. AKVVYLETETLVTREAVTEILGIE [F2K]  1.78
25. DFVVYLETETLVTREAVTEILGIE [A1D]  1.74
26. AHVVYLETETLVTREAVTEILGIE [F2H]  1.48
